Tested on: total spleen cells
Test: In vitro proliferation assay of splenocytes (3H-thymidine uptake)
Format: cell-based, mouse
Method: Briefly, freshly recovered splenocytes from 8 week old male Balb/c mice seeded at a concentration of 5×10^4 cells/well were incubated for 24, 48 and 72 h in 5% FCS RPMI-1640 medium. A 16 h ^3H-thymidine pulse at 1 μCi/well was performed before harvesting. ^3H-Thymidine uptake was determined in a beta-plate liquid scintillation counter (LKB-Wallac). All points were done in triplicate and the corresponding standard deviation calculated. For comparison, ^3H-thymidine uptake after 48 h in the presence of ConA (10 μg/ml) and LPS (5 μg/ml) was 32000 c.p.m. and 3500 c.p.m., respectively. T-cell depletion was performed by incubating freshly recovered spleen cells for 30 min at 37° C. in the presence of anti-Thy 1.2 monoclonal antibody (Cedarlane) and rabbit complement (Cedarlane). In order to rule out a possible mitogenic effect due to LPS contamination in samples, proliferation assays were also performed on freshly recovered splenocytes from the LPS non-responder mouse strain C3H/Hej. Same levels of proliferation were verified. Balb/c mice were purchased from Charles River, France. C3H/Hej mice were maintained in our animal facilities.
In vitro proliferation is accomplished using freshly recovered splenocytes from BALB/c mice seeded at a density of 5×10^4 cells/well and incubated for 24, 48 and 72 h with increasing concentrations of total parasite supernatants or recombinant TcPa45 protein or other mitogen (0.07-200 μg/ml) with 0.5 μg/ml of the HPLC fractions, or with the conventionally used mitogens concanavalin A (10 μg/ml) and lipopolysaccharide (5 μg/ml) in 5% FCS in RPMI-1640 complete medium. T-cell depletion is accomplished by incubating freshly recovered spleen cells for 30 min. at 37° C. in the presence of monoclonal antibodies against Thy 1.2 and rabbit complement (Cedarlane, Le Perray en Yvelines, France). Analysis of proliferative activity of total splenocytes (5×10^4 cells/well) in the presence of 50 μg/ml enzymatically active rTcPA45 or other mitogen is also compared with the proliferation obtained using the same amounts of rTcPA45 protein or other mitogen lacking racemase activity (by heating for 10 min. at […] or by long term storage at 4° C.). Inhibition of proliferation is obtained by adding to the splenocyte cultures 50 μg/ml rTcPA45 or other mitogen pre-incubated for 10 min. at 37° C. with 1 mM inhibitor, either specific (pyrrole-2-carboxylic acid) or nonspecific (iodoacetamide or iodoacetate). Competitive assays of proliferative activity by 50 μg/ml rtcPA45 or other mitogen are done by adding increasing concentrations of specific substrates i.e., proline racemase substrates (L- or D-proline) for the mitogen rTcPA45 ranging from 3 mM to 50 mM. Controls include the incubation of splenocytes (5×10^4 cells/well) with substrate alone, i.e., 50 mM L- or D-proline in RPMI medium alone for prline racemase. Cultures are collected after a 16-hour pulse or 1 μCi/well ^3H-thymidine uptake was determined in a beta-plate liquid scintillation counter (LKB-Wallac, Orsay, France). All data points are obtained in triplicate and the corresponding standard deviation is calculated.
5×10^5 naive spleen cells/well (96 well plate) were stimulated in vitro with different doses of rTcPA45 (ranging in FIG. 4b from 0.8 to 200 μg/ml final) for 24, 48 and 72 h, at 37° C., 5% CO2. Cultures were pulsed with ^3H-Thymidine (1 μCi/well) for 16-18 h before harvesting. ^3H-thymidine incorporation was obtained after counting using a beta-plate. Results present arithmetic means of c.p.m. (counts/minute) from 6 wells/dose of rTcPA45 or wells containing medium alone (+/−SD of the means). (FIG. 4b)

[1] = spleen lymphocytes, up to 72 h culture

B1: rTcPA45: recombinant T. cruzi polyclonal activator 45, B-cell mitogen and proline racemase, codons 30-423 with C-terminal 6×His tag, from E. coli (protein)
chain: RTGQEKLLFDQKYKIIKGEKKEKKKNQRANRREHQQKREIMRFKKSFTCIDMHTEGEAARIVTSGLPHIPGSNMAEKKAYLQENMDYLRRGIMLEPRGHDDMFGAFLFDPIEEGADLGMVFMDTGGYLNMCGHNSIAAVTAAVETGIVSVPAKATNVPVVLDTPAGLVRGTAHLQSGTESEVSNASIINVPSFLYQQDVVVVLPKPYGEVRVDIAFGGNFFAIVPAEQLGIDISVQNLSRLQEAGELLRTEINRSVKVQHPQLPHINTVDCVEIYGPPTNPEANYKNVVIFGNRQADRSPCGTGTSAKMATLYAKGQLRIGETFVYESILGSLFQGRVLGEERIPGVKVPVTKDAEEGMLVVTAEITGKAFIMGFNTMLFDPTDPFKNGFTLKQ
modifications: left off: small tags and cut ends
B1 was tested, and the “mitogenic activity of inactivated rTcPA45” value (inactivated by being heated or by long storage at 4° C.) was “abolished”, the “concentration at which proliferation peaks (bell-shaped dose-response curve)” value [1] was 50 µg/mL and the “concentration from which proliferation starts (bell-shaped dose-response curve)” value [1] was 0.8 µg/mL.
